# Measurements from publication PMC10514136, “Peptide-conjugated antimiRs improve myotonic dystrophy type 1 phenotypes by promoting endogenous MBNL1 expression” (Molecular Therapy. Nucleic Acids, 2023).
# Test system: DM1 cells
# Test: Cell growth inhibition of DM1 cells, gymnosis vs transfection at EC50
# Assay type: cell-based, human
# Settings: at the EC50 concentration
# Procedure: Immortalized MyoD-inducible (doxycycline) DM1 and control fibroblasts were kindly provided by Dr Furling (Institute of Myology, Paris, France).[38] For the activity assay, cells were seeded in 6-well plates at a density of 8 × 10^4 cells/well and grown in DMEM with 4.5 g/L glucose, 1% P/S, and 10% FBS (Sigma, St. Louis, MO). To transdifferentiate fibroblasts into myoblasts by inducing MyoD expression, the cells were plated in muscle differentiation medium containing DMEM with 4.5 g L^−1 glucose, 1% P/S, 2% horse serum, 1% apo-transferrin (10 mg mL^−1), 0.1% insulin (10 mg mL^−1), and 0.02% doxycycline (10 mg mL^−1). In all cases, the cells were grown at 37°C in a humidified atmosphere containing 5% CO2. Transdifferentiation was induced at day 0, and transfection was performed by lipofection with X-tremeGENE HP (Roche, Basel, Switzerland) 24 h later, with antimiRs and test compounds in the cell medium at different concentrations (from 0.4 nM to 5 μM). […]
# Cells seeded at 10^5 cells/mL in 96-well plates were transfected 24 h later with antimiRs as described previously.[20] After 96 h, cell proliferation was measured using the CellTiter 96 AQueous Non-Radioactive Cell Proliferation Assay (Promega, Madison, WI). Absorbance levels were determined using an Infinite M200 PRO plate reader (Tecan, Männedorf, Switzerland) and the TC50 was calculated using non-linear least-squares regression.
substance,measurement,value
"9b2KC-23b (antisense GGUAAUCCCUGGCAAUGUGAU; all phosphorodiamidate morpholino (PMO), T or U not given here; Pip9b2KC peptide conjugated)","toxicity (cell growth inhibition), gymnosis compared with transfection",toxicity was significantly reduced
